Patent US20240309103A1

What was measured:
[1] = target: mNPR1-mFc:hANP complex (mouse; human) (UniProt P01160); assay: SPR Biacore, mAb captured by anti-human Fc, 25C
[2] = target: mNPR1-mFc:hBNP complex (mouse; human) (UniProt P16860); assay: SPR Biacore, mAb captured by anti-human Fc, 25C
[3] = target: mNPR1-mFc:hANP complex (mouse; human) (UniProt P01160); assay: SPR Biacore, mAb captured by anti-human Fc, 37C
[4] = target: mNPR1-mFc:hBNP complex (mouse; human) (UniProt P16860); assay: SPR Biacore, mAb captured by anti-human Fc, 37C
[5] = target: human NPR1 on HEK293/hNPR1.myc.DDK cells (0 hANP) (human) (UniProt P16066); assay: cell-based or functional assay
[6] = target: human NPR1 on HEK293/hNPR1.myc.DDK cells (no hANP added) (human) (UniProt P16066); assay: cell-based or functional assay
[7] = target: human NPR1 on HEK293/hNPR1.myc.DDK cells (0 hANP) (human) (UniProt P16066); assay: ECL cell binding (MSD), 0 hANP
[8] = target: mNPR1-mFc:hANP complex (mouse; human) (UniProt P01160); assay: SPR Biacore, mAb captured by anti-human Fc, 37C; kinetics IC* (inconclusive)
[9] = target: mNPR1-mFc:hBNP complex (mouse; human) (UniProt P16860); assay: as above

human NPR1 on HEK293/hNPR1.myc.DDK cells (0 hANP) (human), sequence (P16066 33-1061): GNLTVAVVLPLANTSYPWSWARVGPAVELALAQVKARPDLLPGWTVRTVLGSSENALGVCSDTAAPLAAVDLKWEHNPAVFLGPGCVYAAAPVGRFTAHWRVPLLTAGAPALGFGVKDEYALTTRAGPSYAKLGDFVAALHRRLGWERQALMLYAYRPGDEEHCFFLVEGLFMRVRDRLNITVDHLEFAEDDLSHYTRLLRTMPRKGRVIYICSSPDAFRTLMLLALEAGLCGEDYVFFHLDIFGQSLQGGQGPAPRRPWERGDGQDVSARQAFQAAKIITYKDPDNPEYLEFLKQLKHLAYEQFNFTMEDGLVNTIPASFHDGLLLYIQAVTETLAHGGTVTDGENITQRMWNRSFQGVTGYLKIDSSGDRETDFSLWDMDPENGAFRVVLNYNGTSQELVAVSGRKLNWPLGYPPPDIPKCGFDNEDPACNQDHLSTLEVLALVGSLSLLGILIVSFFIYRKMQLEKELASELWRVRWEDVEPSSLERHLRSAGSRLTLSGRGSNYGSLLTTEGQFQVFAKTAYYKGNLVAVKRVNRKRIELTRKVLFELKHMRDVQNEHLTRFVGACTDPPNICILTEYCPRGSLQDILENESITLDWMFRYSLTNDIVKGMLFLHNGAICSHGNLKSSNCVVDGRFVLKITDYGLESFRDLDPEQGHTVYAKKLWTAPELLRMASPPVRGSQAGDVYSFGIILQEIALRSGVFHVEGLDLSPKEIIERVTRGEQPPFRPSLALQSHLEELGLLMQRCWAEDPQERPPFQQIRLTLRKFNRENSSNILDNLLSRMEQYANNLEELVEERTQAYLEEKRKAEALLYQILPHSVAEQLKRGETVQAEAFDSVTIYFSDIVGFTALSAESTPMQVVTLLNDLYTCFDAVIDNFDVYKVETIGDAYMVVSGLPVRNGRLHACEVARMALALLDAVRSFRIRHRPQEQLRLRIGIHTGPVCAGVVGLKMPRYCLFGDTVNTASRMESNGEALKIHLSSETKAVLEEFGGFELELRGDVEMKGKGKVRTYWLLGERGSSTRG
human NPR1 on HEK293/hNPR1.myc.DDK cells (no hANP added) (human), sequence (P16066 33-1061): as above

B1: mAb25497 (antibody, human IgG4, V domains shown)
VH: QVQLVQSGAEVKEPGASVKVSCKASGYTFTDYYIHWVRQAPGQGLEWMGWINLNSGGKNHAQKFQGRVTVTSDTSINTAYIELGRLRGDDTAVYYCSRGGGSHYYYYYHGMDVWGQGTTVTVSS
VL: DIQMTQSPSSLSASVGDRITITCRASHSIDSYLNWYQQKPGKAPKLLIYPASTLQSGVPSRFSGSGSGTDFTLTISSLQPEDSAIYYCQQSYSTPLTFGGGTKVEIK
100 nM Ag Bound (RU) [1]: 1 RU
100 nM Ag Bound (RU) [2]: 2 RU
100 nM Ag Bound (RU) [3]: 1 RU
100 nM Ag Bound (RU) [4]: 2 RU

B2: mAb25508 (antibody, human IgG4, V domains shown)
VH: EVQLVESGGGVVRPGGSLRLSCAASGFNVDDYGMSWVRQIPGKGLEWISGINWNGGRIYYADSMKGRITISRDNAKNSLYLQMNSLRAEDTALYHCVRDQWLVRGLDYWGQGTLVTVSS
VL: DIQMTQSPSSLSASVGDRVTITCRASQGIYNYLAWFQQKPGKAPKSLIYAASSLQSGVPSKFSGSGSGTDFTLTISSLQPEDFATYYCQQYNTYPYTFGQGTKLEIK
100 nM Ag Bound (RU) [1]: 0 RU
100 nM Ag Bound (RU) [2]: 1 RU
100 nM Ag Bound (RU) [3]: 0 RU
100 nM Ag Bound (RU) [4]: 1 RU

B3: mAb22809 (antibody, human IgG4, V domains shown)
VH: QLQLRESGPGLVKPSETLSLTCTVSGGSINDNSFFWDWIRQTPGRGLEWIGNIFFDGNTYYTPSLKSRVIISVDMSQNQFSLRLTSVTAADTALYYCARHKRSMTAWGFFDYWGQGTLVTVSS
VL: DIQMTQSPSSLSASVGDRVTITCRASKRINTYLNWYQQKPGKAPKVLIYSASNLQSGVPSRFSGSGSGTDFTLTINSLQPEDFATYFCQQSFSAPPITFGQGTRLEIK
100 nM Ag Bound (RU) [1]: 0 RU
100 nM Ag Bound (RU) [2]: 1 RU
100 nM Ag Bound (RU) [3]: 1 RU
100 nM Ag Bound (RU) [4]: 1 RU

B4: mAb25502 (antibody, human IgG4, V domains shown)
VH: QLQLQESGPGLVKPSETLSLTCTVSGGSISSSSYYWGWIRQPPGKGLEWIGSIYYSGSPYYIPSLKSRVTISVDTSKNQFSLKLSSVTAADTAMYYCARQGRGIARAGPFDYWGQGTLVTVSS
VL: DIQMTQSPSSLSASVGDRVTITCRASQGISNYLAWYQEKPGKVPKLLIYAASTLQSGVPSRFSGSGSGTDFTLTITSLQSEDVATYYCQKYNSAPPWTFGQGTKVEIK
% Activation (vs ANP max), Expt 1 [5]: 92.9%
% Activation (vs. ANP max), Expt II [5]: 110%
EC50 (nM), calcium flux, Expt 1 [5]: 161 nM
EC50 (nM), calcium flux, Expt II [5]: > 200 nM
EC50 of Ca2+ flux activation, Expt II [6]: > 200 nM
Ratio at 3.7 nM Ab concentration of Cell Binding Signal (RLU) to HEK293/hNPR1.myc.DKK relative to parental HEK293 [7]: 1
100 nM Ag Bound (RU) [1]: 25 RU
Kd [1]: 337 nM
koff [1]: 0.0799 s⁻¹
kon [1]: 237000 M⁻¹ s⁻¹
t½ [1]: 8.4 s
100 nM Ag Bound (RU) [2]: 25 RU
Kd [2]: 215 nM
koff [2]: 0.0503 s⁻¹
kon [2]: 234000 M⁻¹ s⁻¹
t½ [2]: 13.8 s
100 nM Ag Bound (RU) [3]: 35 RU
Kd [3]: 334 nM
koff [3]: 0.0883 s⁻¹
kon [3]: 264000 M⁻¹ s⁻¹
t½ [3]: 7.8 s
100 nM Ag Bound (RU) [4]: 34 RU
Kd [4]: 342 nM
koff [4]: 0.0998 s⁻¹
kon [4]: 291000 M⁻¹ s⁻¹
t½ [4]: 7.2 s

B5: mAb22035 (antibody, human IgG4, V domains shown)
VH: EVQLVESGGGLVQPGRSLRLSCAASGFTFDDYAMHWVRQAPGKGLEWVSGISWNSGTIGYADSVKGRFTMSRDNAKNSLYLQMNSLRPEDTALYYCAKDMGVSLALWGAFDIWGQGTMVTVSS
VL: DIQMTQSPSSLSASVGDKVTITCRASQNIRTYLNWYQQKPGKAPKVLISTASSLQSGVPSRFSGSGSGTDFTLTISSLQPEDFAVFYCQQSFGIPRTFGQGTKVEIK
100 nM Ag Bound (RU) [1]: 0 RU
100 nM Ag Bound (RU) [2]: 0 RU
100 nM Ag Bound (RU) [3]: 1 RU
100 nM Ag Bound (RU) [4]: 1 RU

B6: mAb22033 (antibody, human IgG4, V domains shown)
VH: QVQLVQSGAEVKKPGASVTVSCKASGYTFTDYYMHWVRQAPGQGLEWMGWIKPNSGGTNSAQRFQGRITMTWDTSISTAYMELSRLRSDDTAVYYCSRGGPVMNYYYYYGMDVWGQGTTVTVSS
VL: NIQMTQSPSSLSASVGDRVTITCRASQSIDSYLNWYQQKPGKAPKLLIYVASSLQSGVPSRFSGSGSGKDFTLTISSLQPEDFATYYCQQSYSIPTFGQGTRLEIK
100 nM Ag Bound (RU) [1]: 1 RU
100 nM Ag Bound (RU) [2]: 5 RU
100 nM Ag Bound (RU) [3]: 2 RU
100 nM Ag Bound (RU) [4]: 4 RU

B7: mAb22805 (antibody, human IgG4, V domains shown)
VH: QVQLVESGGGVVQPGRSLRLSCAASGFTFSTYGMHWVRQAPGKGLEWVALIWNDGSNKYYADSVKGRFTISRDNSKNTLDLQMNSLRAEDTAVYYCARLNTRITGTTNLDYWGQGTLVTVSS
VL: DIQMTQSPSSLSASVGDRVTVSCRASQSIANYLNWYQQKPGKAPNLLIYGAYTLQSGVPSRFRGSGSGTDFTLTISSLQPEDFATYYCQQTYSTPPITFGQGTRLEIK
100 nM Ag Bound (RU) [1]: 18 RU
Kd [1]: 424 nM
koff [1]: 0.0839 s⁻¹
kon [1]: 198000 M⁻¹ s⁻¹
t½ [1]: 8.4 s
100 nM Ag Bound (RU) [2]: 21 RU
Kd [2]: 445 nM
koff [2]: 0.0682 s⁻¹
kon [2]: 153000 M⁻¹ s⁻¹
t½ [2]: 10.2 s
100 nM Ag Bound (RU) [8]: 15 RU
100 nM Ag Bound (RU) [9]: 17 RU

B8: mAb25491 (antibody, human IgG4, V domains shown)
VH: QVQLVQSGAEVMKPGASVKVSCKASGYTFTGYYIHWVRQAPGQGLEWMGWITPNSGATNYAQKFQGRVTLTRDTSISTAYMELTRLKSDDTAVYYCARGGQLEFFYYYYGMDVWGQGTTVTVSS
VL: DIQMTQSPSSLSASAGDRVTITCRASQSIDSYLNWYQQKPGKAPKLLISATSGFQSGVPSRFSGSGSGTDFTLTISSLQPEDFGTYYCQQSYTTPITFGQGTRLEIK
100 nM Ag Bound (RU) [1]: 1 RU
100 nM Ag Bound (RU) [2]: 5 RU
100 nM Ag Bound (RU) [3]: 1 RU
100 nM Ag Bound (RU) [4]: 4 RU
